Assay [1] deals with Influenza B nucleoprotein (strain B/Memphis/13/03) (influenza B virus, strain B/Memphis/13/03). Nature of the assay: negative stain electron microscopy.
The target is the same in assay [2]. In words: SEC-MALLS.

Several values for one entry are separate records, joined by “and”; a condition that tells them apart may be missing. Equal entries are not always repeated.

This note sets out measurements from article PMC5035961.

With “Influenza B nucleoprotein (strain B/Memphis/13/03) (natural protein)”, the stoichiometry N is 2 and 4 and 5 in assay [1]; 5 and 2 and 4 in assay [2].

What is called stoichiometry N is a count of units in the complex or per binding partner.
